From the RNAGym collection of RNA variant scans (doi:10.1093/molbev/msab373)

B1: Azoarcus group I ribozyme (parent)
chain: GUGCCUUGCGCCGGGAAACCACGCAAGGGAUGGUGUCAAAUUCGGCGAAACCUAAGCGCCCGCCCGGGCGUAUGGCAACGCCGAGCCAAGCUUCGGCGCCUGCGCCGAUGAAGGUGUAGAGACUAGACGGCACCCACCUAAGGCAAACGCUAUGGUGAAGGCAUAGUCCAGGGAGUGGCGAAAGUCACACAAACCGG

Variants of: B1
Test: reverse-splicing fitness (ratio to wild type); higher = more active; in vitro selection; Mg2+ level not given
Procedure, shortened: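 An in vitro group I ribozyme library with randomized positions was T7-transcribed and gel-purified. In triplicate, 10 pmol RNA in EPPS pH 7.5 was reacted with 50 pmoles of a 30-nt RNA substrate for 1 h at 37 °C across several added MgCl2 levels (1–48 mM), then stopped with EDTA. Products were reverse transcribed from a substrate-complementary primer, PCR-amplified and sequenced (HiSeq 4000). Fitness is a variant's read proportion after selection over that before, normalised to wild type.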

Variant	reverse-splicing fitness
C82A A111G A145G C169G U176A	0.0194
C82A A111G A145G C169G U176C	0.0288
C82A A111U	0.299
C82A A111G A145U C169A U176G	0.00504
C82A A111G A145U C169A U176A	0.0131
C82A A111G A145U C169A U176C	0.0104
C82A A111G A145U C150U U176A	0.106
C82A A111G A145U C150U U176C	0.166
C82A A111G A145U C150U U176G	0.0305
C82A A111G C150G C169U	0.0107
C82A A111G C150G C169A	0.0102
C82A A111G C150G C169G	0.00678
C82A A111G A145G C169U	0.0126
C82A A111G A145G C169A	0.0102
C82A A111G A145G C169G	0.00988
C82A A111G A145G C169A U176A	0.0201
C82A A111G A145G C169A U176C	0.0253
C82A A111G A145G C169A U176G	0.00591
C82A A111U A120C A145C C169A	0.0103
C82A A111U A120C A145C C169G	0.01
C82A A111U A120C A145C C169U	0.0112
C82A A111G A145G C150U C169G U176C	0.0198
C82A A111G A145G C150U C169G U176A	0.0156
C82A A111G A145G C150U C169G U176G	0.00644

Variant	reverse-splicing fitness
C82A A111U A120C A145C C150G C169A	0.00897
C82A A111U A120C A145C C150G C169U	0.00963
C82A A111U A120C A145C C150G C169G	0.00743
C82A A111U A120C A145C C150U C169U U176A	0.0144
C82A A111U A120C A145C C150U C169U U176C	0.0133
C82A A111U A120C A145C C150U C169U U176G	0.00618
C82A A111G C150G C169A U176G	0.00753
C82A A111G C150G C169A U176A	0.0113
C82A A111G C150G C169A U176C	0.0122
C82A A111G A145G C150G C169U	0.00932
C82A A111U A120C A145U C150G C169A U176G	0.00766
C82A A111U A120C A145U C150G C169A U176C	0.0116
C82A A111U A120C A145U C150G C169A U176A	0.0117
C82A A111G A145U C150A C169U U176C	0.0109
C82A A111G A145U C150A C169U U176G	0.00627
C82A A111G A145U C150A C169U U176A	0.0132
C82A A111G C150U C169U U176G	0.00623
C82A A111G C150U C169U U176C	0.0136
C82A A111G C150U C169U U176A	0.0148
C82A A111U A120C A145G C150U C169A U176G	0.00943
C82A A111U A120C A145G C150U C169A U176A	0.0182
C82A A111U A120C A145G C150U C169A U176C	0.018
C82A A111G A145U C150U C169G U176G	0.00627
C82A A111G A145U C150U C169G U176A	0.0131

Variant	reverse-splicing fitness
C82A A111G A145U C150U C169G U176C	0.015
C82A A111U A120C A145C	0.0267
C82A A111U A120C A145G	0.0269
C82A A111U A120C A145U	0.0284
C82A A111U A120C A145G C169G U176A	0.0259
C82A A111U A120C A145G C169G U176C	0.0355
C82A A111U A120C A145G C169G U176G	0.00647
C82A A111U A120C A145U C150A C169U U176C	0.0133
C82A A111U A120C A145U C150A C169U U176G	0.00856
C82A A111U A120C A145U C150A C169U U176A	0.0174
C82A A111G C150U C169A U176G	0.00716
C82A A111G C150U C169A U176C	0.0164
C82A A111G C150U C169A U176A	0.0185
C82A A111U A120C A145G C150U C169G U176G	0.00639
C82A A111U A120C A145G C150U C169G U176A	0.0138
C82A A111U A120C A145G C150U C169G U176C	0.0201
C82A A111G C150A C169G U176C	0.0249
C82A A111G C150A C169G U176A	0.0221
C82A A111G C150A C169G U176G	0.00691
C82A A111U A120C A145C C150A C169A U176C	0.0164
C82A A111U A120C A145C C150A C169A U176A	0.0206
C82A A111U A120C A145C C150A C169A U176G	0.00772
C82A A111U A120C A145G C150U C169U U176A	0.0152
C82A A111U A120C A145G C150U C169U U176G	0.00781

Variant	reverse-splicing fitness
C82A A111U A120C A145G C150U C169U U176C	0.0148
C82A A111U A120C A145U C150A C169G U176G	0.00723
C82A A111U A120C A145U C150A C169G U176C	0.0263
C82A A111U A120C A145U C150A C169G U176A	0.0219
C82A A111U A120C A145C C150U C169G	0.00912
C82A A111U A120C A145C C150U C169U	0.0105
C82A A111U A120C A145C C150U C169A	0.00907
C82A A111G A145G C150G U176C	0.0188
C82A A111G A145G C150G U176G	0.00721
C82A A111G A145G C150G U176A	0.00955
C82A A111G A145U C150G	0.0319
C82A A111G A145U C150U	0.254
C82A A111G A145U C150A	0.0313
C82A A111U A120C A145C C150U C169G U176C	0.0353
C82A A111U A120C A145C C150U C169G U176A	0.0356
C82A A111U A120C A145C C150U C169G U176G	0.00842
C82A A111U A120C A145C C150U U176A	0.0118
C82A A111U A120C A145C C150U U176G	0.00643
C82A A111U A120C A145C C150U U176C	0.0198
C82A A111U A120C A145G U176G	0.00731
C82A A111U A120C A145G U176A	0.0187
C82A A111U A120C A145G U176C	0.0361
C82A A111G C150G C169U U176A	0.00656
C82A A111G C150G C169U U176G	0.00537

Variant	reverse-splicing fitness
C82A A111G C150G C169U U176C	0.0125
C82A A111G A145U C150A U176G	0.0106
C82A A111G A145U C150A U176C	0.03
C82A A111G A145U C150A U176A	0.0241
C82A A111U A120C	0.0268
C82A A111G A145G C150U C169U U176C	0.0135
C82A A111G A145G C150U C169U U176A	0.0138
C82A A111G A145G C150U C169U U176G	0.00655
C82A A111U A120C A145U C150G C169U	0.01
C82A A111U A120C A145U C150G C169G	0.00869
C82A A111U A120C A145U C150G C169A	0.00962
C82A A111U A120C A145G C150G C169U U176C	0.0129
C82A A111U A120C A145G C150G C169U U176G	0.00787
C82A A111U A120C A145G C150G C169U U176A	0.0146
C82A A111U A120C A145C C150G U176C	0.00974
C82A A111U A120C A145C C150G U176G	0.0032
C82A A111U A120C A145C C150G U176A	0.00531
C82A A111G C150U C169G U176G	0.00633
C82A A111G C150U C169G U176C	0.0194
C82A A111G C150U C169G U176A	0.0188
C82A A111G C150U C169A	0.011
C82A A111G C150U C169G	0.00992
C82A A111G C150U C169U	0.0122
C82A A111U A120C A145C U176C	0.0202

Variant	reverse-splicing fitness
C82A A111U A120C A145C U176G	0.00578
C82A A111U A120C A145C U176A	0.0139
C82A A111U A120C A145C C150A C169G	0.00947
C82A A111U A120C A145C C150A C169U	0.0111
C82A A111U A120C A145C C150A C169A	0.01
C82A A111U A120C A145G C150G C169A	0.00936
C82A A111U A120C A145G C150G C169G	0.00768
C82A A111U A120C A145G C150G C169U	0.0104
C82A A111U A120C A145C C150G	0.00984
C82A A111U A120C A145C C150A	0.012
C82A A111U A120C A145C C150U	0.0149
C82A A111U A120C A145C C150G C169A U176A	0.00999
C82A A111U A120C A145C C150G C169A U176C	0.011
C82A A111U A120C A145C C150G C169A U176G	0.0073
C82A A111G C169G U176G	0.00548
C82A A111G C169G U176A	0.0181
C82A A111G C169G U176C	0.0207
C82A A111G A145U C169G U176C	0.0131
C82A A111G A145U C169G U176G	0.00511
C82A A111G A145U C169G U176A	0.011
C82A A111U A120C A145G C150U U176G	0.00822
C82A A111U A120C A145G C150U U176C	0.0246
C82A A111U A120C A145G C150U U176A	0.0126
C82A A111U A120C A145G C169A	0.0113

Variant	reverse-splicing fitness
C82A A111U A120C A145G C169G	0.0103
C82A A111U A120C A145G C169U	0.0142
C82A A111G A145U C150U C169A	0.00951
C82A A111G A145U C150U C169U	0.0118
C82A A111G A145U C150U C169G	0.00926
C82A A111U A120C A145U C150A C169A U176A	0.0231
C82A A111U A120C A145U C150A C169A U176C	0.0189
C82A A111U A120C A145U C150A C169A U176G	0.00919
C82A A111G U176C	0.262
C82A A111G U176A	0.189
C82A A111G U176G	0.0537
C82A A111G A145U C150A C169A U176G	0.00674
C82A A111G A145U C150A C169A U176A	0.0124
C82A A111G A145U C150A C169A U176C	0.0106
C82A A111U A120C A145G C150A	0.013
C82A A111U A120C A145G C150G	0.0101
C82A A111U A120C A145G C150U	0.0255
C82A A111G A145G C150G C169U U176G	0.00825
C82A A111G A145G C150G C169U U176A	0.0112
C82A A111G A145G C150G C169U U176C	0.0123
C82A A111U A120C A145G C150G C169G U176G	0.00673
C82A A111U A120C A145G C150G C169G U176A	0.0112
C82A A111U A120C A145G C150G C169G U176C	0.0155
